Here are results for one molecule from article PMC4661386.

The experiment has as its target CUB_C (CUB module and C-terminal peptide from human TSG-6), wild type (human) (UniProt P98066). As to the kind of experiment: SPR; CUB_C (WT or E183S) amine-coupled to a CM5 chip (~1000 RU); rHC1 (WT or D298A) injected at 30 ul/min in 20 mM HEPES, 150 mM NaCl, 0.05% Tween 20, pH 7.4 (HBS-T), no EDTA (as purified CUB_C contains Ca2+); multicycle kinetics, 1:1 Langmuir model. (In general: Surface plasmon resonance follows binding to a sensor surface in real time, without labels.)

B1: Recombinant human heavy chain 1 (rHC1) of inter-alpha-inhibitor, wild type (natural protein)
chain: SKSSEKRQAVDTAVDGVFIRSLKVNCKVTSRFAHYVVTSQVVNTANEAREVAFDLEIPKTAFISDFAVTADGNAFIGDIKDKVTAWKQYRKAAISGENAGLVRASGRTMEQFTIHLTVNPQSKVTFQLTYEEVLKRNHMQYEIVIKVKPKQLVHHFEIDVDIFEPQGISKLDAQASFLPKELAAQTIKKSFSGKKGHVLFRPTVSQQQSCPTCSTSLLNGHFKVTYDVSRDKICDLLVANNHFAHFFAPQNLTNMNKNVVFVIDISGSMRGQKVKQTKEALLKILGDMQPGDYFDLVLFGTRVQSWKGSLVQASEANLQAAQDFVRGFSLDEATNLNGGLLRGIEILNQVQESLPELSNHASILIMLTDGDPTEGVTDRSQILKNVRNAIRGRFPLYNLGFGHNVDFNFLEVMSMENNGRAQRIYEDHDATQQLQGFYSQVAKPLLVDVDLQYPQDAVLALTQNHHKQYYEGSEIVVAGRIADNKQSSFKADVQAHGEGQEFSITCLVDEEEMKKLLRERGHMLENHVERLWAYLTIQELLAKRMKVDREERANLSSQALQMSLDYGFVTPLTSMSIRGMADQDGLKPTIDKPSEDSPPLEMLGPRRTFVLSALQPSPTHSSSNTQRLPDRVTGVDTD
On to B1, for which the Kd (in general, the concentration at which binding is half-saturated) came to 2.1 nM.
